Experimental findings from the supplement of paper PMC9112550, “Optimization of the antimicrobial peptide Bac7 by deep mutational scanning” (BMC Biology, 2022) are described below.

This data set concerns Escherichia coli TOP10. Description: shrunken log2 fold change of peptide-encoding DNA abundance (4.5 h post-induction vs induction); higher = less antimicrobial activity (less host growth inhibition). Particulars: time post-induction: 4.5 h; library: site-saturation at positions 5, 18, 19, 20.
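Note: peptides expressed intracellularly from a pBAD plasmid library in pooled LB shake-flask culture, induced with 0.3% L-arabinose, DNA abundance read by NGS, three biological replicates, DESeq2 with apeglm shrinkage.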

Take RRIRERPPRLPRPRPRPHETPRP: the “shrunken log2 fold change” value was -0.0135.

For RRIRERPPRLPRPRPRPDMNPRP, the “shrunken log2 fold change” value was -0.00248.

As to RRIRKRPPRLPRPRPRPQQGPRP, the “shrunken log2 fold change” value is 0.23.

Regarding RRIRIRPPRLPRPRPRPFSGPRP, the “shrunken log2 fold change” value is -0.241.

As to RRIRRRPPRLPRPRPRPWNVPRP, the “shrunken log2 fold change” value was 0.00231.

For the sequence RRIRKRPPRLPRPRPRPGPHPRP, the “shrunken log2 fold change” value amounted to 0.803.

As for RRIRNRPPRLPRPRPRPHLTPRP, the “shrunken log2 fold change” value is -0.0934.

In the case of RRIRHRPPRLPRPRPRPEEYPRP, the “shrunken log2 fold change” value is -0.289.

As for RRIRMRPPRLPRPRPRPMKFPRP, the “shrunken log2 fold change” value amounted to 0.0534.

Take RRIRPRPPRLPRPRPRPIKTPRP: the “shrunken log2 fold change” value was found to be 0.0751.

As to RRIRPRPPRLPRPRPRPVMTPRP, the “shrunken log2 fold change” value is -0.0299.

As for RRIRNRPPRLPRPRPRPYNWPRP, the “shrunken log2 fold change” value was -0.161.

For the sequence RRIRQRPPRLPRPRPRPRDMPRP, the “shrunken log2 fold change” value is -0.046.

For RRIRDRPPRLPRPRPRPEDWPRP, the “shrunken log2 fold change” value was 1.45.

For the sequence RRIRVRPPRLPRPRPRPTGRPRP, the “shrunken log2 fold change” value turned out to be 0.274.

Take RRIRNRPPRLPRPRPRPGADPRP: the “shrunken log2 fold change” value was determined as 0.0958.

RRIRIRPPRLPRPRPRPGTLPRP: the “shrunken log2 fold change” value came out at 0.0164.

For RRIRNRPPRLPRPRPRPMFLPRP, the “shrunken log2 fold change” value is -0.241.

For RRIRNRPPRLPRPRPRPSRFPRP, the “shrunken log2 fold change” value was -0.0872.

As for RRIRSRPPRLPRPRPRPKSPPRP, the “shrunken log2 fold change” value came out at 0.291.

Consider RRIRPRPPRLPRPRPRPWMYPRP, for which the “shrunken log2 fold change” value was -0.691.

RRIRSRPPRLPRPRPRPQGRPRP: the “shrunken log2 fold change” value is -0.0801.

In the case of RRIRTRPPRLPRPRPRPVYVPRP, the “shrunken log2 fold change” value was -0.62.

Take RRIRCRPPRLPRPRPRPGKHPRP: the “shrunken log2 fold change” value was -0.423.

With RRIRIRPPRLPRPRPRPMQDPRP, the “shrunken log2 fold change” value was -0.223.

For RRIRMRPPRLPRPRPRPLLSPRP, the “shrunken log2 fold change” value came out at 0.17.

Turning to RRIRMRPPRLPRPRPRPIYRPRP, the “shrunken log2 fold change” value is -0.0679.

For RRIRLRPPRLPRPRPRPVCSPRP, the “shrunken log2 fold change” value is -0.14.

In the case of RRIRVRPPRLPRPRPRPSNVPRP, the “shrunken log2 fold change” value was -0.139.

Turning to RRIRKRPPRLPRPRPRPMFVPRP, the “shrunken log2 fold change” value was found to be 0.426.

As for RRIRGRPPRLPRPRPRPKYMPRP, the “shrunken log2 fold change” value was determined as 0.104.

With RRIRMRPPRLPRPRPRPILIPRP, the “shrunken log2 fold change” value stood at 0.0587.

Turning to RRIRDRPPRLPRPRPRPCYPPRP, the “shrunken log2 fold change” value was -0.0894.

As for RRIRYRPPRLPRPRPRPLTFPRP, the “shrunken log2 fold change” value is -0.696.

Regarding RRIRCRPPRLPRPRPRPTCTPRP, the “shrunken log2 fold change” value was -0.2.

On to RRIRCRPPRLPRPRPRPFWGPRP, for which the “shrunken log2 fold change” value amounted to 0.0697.

On to RRIRDRPPRLPRPRPRPEFPPRP, for which the “shrunken log2 fold change” value was -0.00168.

As to RRIRQRPPRLPRPRPRPQIYPRP, the “shrunken log2 fold change” value stood at 0.0392.

As to RRIRLRPPRLPRPRPRPCNAPRP, the “shrunken log2 fold change” value is -0.129.

Regarding RRIRQRPPRLPRPRPRPCKLPRP, the “shrunken log2 fold change” value is -0.167.

Consider RRIRHRPPRLPRPRPRPAGYPRP, for which the “shrunken log2 fold change” value is -0.0739.

On to RRIRWRPPRLPRPRPRPVNGPRP, for which the “shrunken log2 fold change” value is -0.295.

Regarding RRIRQRPPRLPRPRPRPSGIPRP, the “shrunken log2 fold change” value is 0.144.

On to RRIRLRPPRLPRPRPRPGTDPRP, for which the “shrunken log2 fold change” value is -0.151.

With RRIRWRPPRLPRPRPRPYRIPRP, the “shrunken log2 fold change” value was -0.209.

On to RRIRIRPPRLPRPRPRPWMSPRP, for which the “shrunken log2 fold change” value was -0.266.

Turning to RRIRFRPPRLPRPRPRPPEFPRP, the “shrunken log2 fold change” value worked out at 0.12.

As to RRIRMRPPRLPRPRPRPHLAPRP, the “shrunken log2 fold change” value was found to be 1.6.

As for RRIRYRPPRLPRPRPRPNMFPRP, the “shrunken log2 fold change” value was -0.186.

As for RRIRERPPRLPRPRPRPWYCPRP, the “shrunken log2 fold change” value stood at 0.00607.
